T1: Recombinant CYP26A1 (UniProt O43174)
T1 sequence: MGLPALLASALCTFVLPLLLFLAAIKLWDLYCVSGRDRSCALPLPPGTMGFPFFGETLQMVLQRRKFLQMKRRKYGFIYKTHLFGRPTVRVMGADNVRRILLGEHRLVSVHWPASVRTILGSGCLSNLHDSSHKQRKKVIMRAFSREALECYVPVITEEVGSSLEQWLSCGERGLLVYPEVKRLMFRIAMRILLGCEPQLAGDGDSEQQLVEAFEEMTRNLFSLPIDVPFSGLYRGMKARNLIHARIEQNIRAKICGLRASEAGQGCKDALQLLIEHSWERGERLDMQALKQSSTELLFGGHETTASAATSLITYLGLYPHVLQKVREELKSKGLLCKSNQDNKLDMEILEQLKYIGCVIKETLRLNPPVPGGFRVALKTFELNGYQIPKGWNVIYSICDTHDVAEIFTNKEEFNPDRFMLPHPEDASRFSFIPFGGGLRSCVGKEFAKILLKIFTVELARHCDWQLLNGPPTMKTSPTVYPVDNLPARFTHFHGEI

T2: CYP26A1 (Homo sapiens, UniProt O43174)
T2 chain: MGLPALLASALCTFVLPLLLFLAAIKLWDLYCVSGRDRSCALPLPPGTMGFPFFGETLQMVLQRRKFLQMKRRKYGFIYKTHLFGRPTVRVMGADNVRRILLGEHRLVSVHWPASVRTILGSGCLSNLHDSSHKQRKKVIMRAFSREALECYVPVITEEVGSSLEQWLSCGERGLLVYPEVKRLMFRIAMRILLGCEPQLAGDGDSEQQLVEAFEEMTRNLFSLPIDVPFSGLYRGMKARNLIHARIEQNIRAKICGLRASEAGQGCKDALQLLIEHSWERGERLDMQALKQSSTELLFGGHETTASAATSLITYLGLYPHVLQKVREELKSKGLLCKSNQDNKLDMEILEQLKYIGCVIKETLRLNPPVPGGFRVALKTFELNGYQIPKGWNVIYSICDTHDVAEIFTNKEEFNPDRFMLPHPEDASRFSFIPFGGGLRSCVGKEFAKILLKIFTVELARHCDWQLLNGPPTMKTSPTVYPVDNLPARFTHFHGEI


Key:
[1] = molecular target: T1, Recombinant CYP26A1
[2] = molecular target: T2, CYP26A1; assay: enzyme inhibition kinetics

Cellular retinoic acid binding protein 1 (CRABP1), sequence (P29762 whole entry): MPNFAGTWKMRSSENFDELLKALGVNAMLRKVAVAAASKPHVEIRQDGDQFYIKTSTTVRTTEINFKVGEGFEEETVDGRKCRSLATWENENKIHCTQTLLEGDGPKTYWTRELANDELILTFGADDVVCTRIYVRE

Molecule	αKm (affinity of holo-CRABP1, with atRA bound, for CYP26A1), from a global fit of the protein-protein interaction model (Equation 3) to 4-OH-atRA formation velocities [1]	αKm (affinity of holo-CRABP2, with atRA bound, for CYP26A1), from a global fit of the protein-protein interaction model (Equation 3) to 4-OH-atRA formation velocities [1]	Ki [2]
Cellular retinoic acid binding protein 1 (CRABP1) (from UniProt P29762 1-137) (natural protein)	0.99 nM	–	–
CRABP2 (protein) MPNFSGNWKIIRSENFEELLKVLGVNVMLRKIAVAAASKPAVEIKQEGDTFYIKTSTTVRTTEINFKVGEEFEEQTVDGRPCKSLVKWESENKMVCEQKLLKGEGPKTSWTRELTNDGELILTMTADDVVCTRVYVRE	–	0.75 nM	0.53 nM
